B1: sdAb A–Gaussia luciferase fusion (glucibody, pecan35) (VHH)
VHH: EVKLQESGGGLVQAGESLRLSCAVPPEVFDIRTVAWYRQVPLGKGRELLSSITPWNKTTYEDSVKDRFTISRDNAKYTVYLQMNDLKPEDTAVYYCAQGWGIASMRYWGQGTQVTVSS
B2: sdAb C–Gaussia luciferase fusion (glucibody, pecan35) (VHH)
VHH: KVQLQESGGGLVQVGGSLRLSCKASGFTFRSSAMGWYRRAPGKQRELVASLTTTGTADYGDFVKGRFTISRDNAENTVDLHMNSLKPEDTAVYYCHEDPYGMESLRYWGQGTQVTVSS
B3: sdAb B–Gaussia luciferase fusion (glucibody, pecan35) (VHH)
VHH: KVQLQESGGGLVQAGGSLRLSCAASGGTFSINTLGWYRRAPGKEREFVARISSGGITRYADSVKGRFTISRDNGKNTVYLDMNSLKPEDTAVYYCMYRNWGGGLDVYWGQGTQVTVSS

Each binder was assayed against mbp-NP600 fusion protein (Marburg virus Musoke, UniProt P27588 601-695) (assay: ELISA).
Chain of mbp-NP600 fusion protein (P27588 601-695): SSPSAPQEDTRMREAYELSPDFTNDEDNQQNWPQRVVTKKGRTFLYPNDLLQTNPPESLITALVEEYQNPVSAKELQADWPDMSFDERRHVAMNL

How did the EC50 turn out when B1 was run?
Its EC50 is 14.1 nM.

For B2, which EC50 is on record?
Its EC50 is 11.9 nM.

How did the EC50 turn out when B3 was run?
The EC50 was 162 nM.

Each binder was assayed against purified recombinant MARV (Marburg Musoke) nucleoprotein polymer (Marburg virus Musoke, UniProt P27588 1-695) (assay: ELISA).
Chain of purified recombinant MARV (Marburg Musoke) nucleoprotein polymer (P27588 whole entry): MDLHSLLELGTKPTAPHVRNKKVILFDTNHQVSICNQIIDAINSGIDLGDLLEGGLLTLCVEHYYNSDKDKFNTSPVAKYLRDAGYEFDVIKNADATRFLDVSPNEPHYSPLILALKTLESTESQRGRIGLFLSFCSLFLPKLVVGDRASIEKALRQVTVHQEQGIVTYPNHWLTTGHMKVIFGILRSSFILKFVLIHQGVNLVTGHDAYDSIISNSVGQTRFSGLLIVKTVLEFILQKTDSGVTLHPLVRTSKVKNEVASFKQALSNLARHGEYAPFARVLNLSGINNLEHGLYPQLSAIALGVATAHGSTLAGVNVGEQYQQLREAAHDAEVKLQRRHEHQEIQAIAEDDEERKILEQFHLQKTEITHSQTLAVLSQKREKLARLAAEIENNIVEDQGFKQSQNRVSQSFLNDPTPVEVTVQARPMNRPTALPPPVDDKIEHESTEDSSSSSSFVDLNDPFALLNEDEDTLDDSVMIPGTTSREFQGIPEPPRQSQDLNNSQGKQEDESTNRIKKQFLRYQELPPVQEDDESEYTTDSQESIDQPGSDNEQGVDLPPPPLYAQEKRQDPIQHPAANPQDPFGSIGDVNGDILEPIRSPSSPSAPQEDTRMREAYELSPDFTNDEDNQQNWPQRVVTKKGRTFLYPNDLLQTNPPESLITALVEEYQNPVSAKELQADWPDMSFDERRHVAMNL

B1 was tested. Which EC50 did it give?
The EC50 was 2.8 nM.

Which EC50 does the source give for B2 here?
Its EC50 is 4.1 nM.

Which EC50 does the source give for B3 here?
The EC50 was 10.8 nM.

— paper PMC5630700 (2017)
